The target in this assay is VisA (SGO_2004) region containing its 7 G5 domains, residues 138-698, with a C-terminal His-tag (Streptococcus gordonii DL1). As to the kind of experiment: denaturing western blot.

Substance “VisA (SGO_2004) region containing its 7 G5 domains, residues 138-698, with a C-terminal His-tag (domain or fragment)” came in with a stoichiometry N of 2.

The values above are taken from publication doi:10.1101/2024.07.16.603716.
